Patent US20210071221
Numbering of substitutions follows the chain as printed.

Legend:
[1] = molecular target: T1, Acceptor substrate 1 (SEQ ID NO: 4)
T1 chain: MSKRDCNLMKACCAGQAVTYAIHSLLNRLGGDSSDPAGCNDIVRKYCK

[2] = molecular target: T2, Acceptor substrate 2 (SEQ ID NO: 5)
T2 chain: T1 chain with S33C

[3] = molecular target: T3, Acceptor substrate 6 (SEQ ID NO: 9)
T3 chain: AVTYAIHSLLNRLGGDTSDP

B1: C-terminal 6X-His tagged recombinant nucleotide dependent glycosyltransferase protein (GT-CTH) (protein)
chain: MGYSENFIANDWFNVEVFNKNKYTLTNQENKDVTELWLQILKGLKFPNELKETVSYSKNLKELSLKTHAEVSVCIIAKNEQDSIRKCINSIYEFSDEIIFIDTGSIDSTKKIVKEIASEKVKIFDYTWQDDFSDARNYSIQKASKEWILIIDADEYVSSDELIKLRLLIDMLDRFKFKDSLRVSCAIYQLDNVITHGQSRLFRNNNKIKYYGLIHEELRNNKGLDPIFNVESEITFFHDGYKEILRKEKCERNIRLLAKMLEKEPDNVRWAYLYCRDSFSINSNIDFEKILLPFLIKNMDESISCENILLTNYTHLILFLITKKYIIDGKSSLASKCIEVLEKMLPNSSDVTFYKFLNKQHSLYEQQFEFLKEVIQFRKNNEYDQYSQIGCNLLHYDLLISGLLFDVKSYDYSYQYFLKLDLANYFSELEIPDEYKMLINKYRENESLEHHHHHH
[1]
  in vitro glycosylation of the acceptor peptide, LC-ESI-Q/TOF: observed average mass of di-glycosylated product as 5503.47 Da (Expected average mass 5503.00 Da)
[2]
  in vitro glycosylation of the acceptor peptide, LC-ESI-Q/TOF: observed monoisotopic mass of di-glycosylated product as 5515.53 Da (Expected monoisotopic mass 5515.41 Da)
[3]
  in vitro glycosylation of the acceptor peptide, MALDI-TOF: observed (M+H)^+ of di-glycosylated product as 2424.65 Da (Expected (M+H)^+ 2424.07 Da) and observed (M+H)^+ of mono-glycosylated product as 2262.57 Da
